Assay results: US20040229826A1, “Dose-dense & sequential adjuvant cancer chemotherapy” (priority 2002, published 2004)

Protocol: Designed for outpatients, all chemotherapy (FIG. 1) was given intravenously, starting within 84 days from primary surgery. […]
Disease-free survival (DFS), which was the primary study endpoint, was measured from study entry until local recurrence, distant relapse or death without relapse, whichever occurred first. […] The secondary endpoint of overall survival (OS) was measured from study entry until death from any cause; surviving patients were censored at the date of last contact. […]

B1: filgrastim (protein, chains of the INN, looked up)
chain: MTPLGPASSLPQSFLLKCLEQVRKIQGDGAALQEKLCATYKLCHPEELVLLGHSLGIPWAPLSSCPSQALQLAGCLSQLHSGLFLYQGLLQALEGISPELGPTLDTLQLDVADFATTIWQQMEELGMAPALQPTQGAMPAFASAFQRRAGGVLVASHLQSFLEVSYRVLRHLAQP
- incidence of leukemia (influence of filgrastim): not influenced
- granulocyte toxicity (use of filgrastim in the dose dense regimens): statistically significant decrease
